Literature values as cited in article PMC8667759.

Experiments:
Piezo1 = Piezo1 (UniProt E2JF22)
Cav3 = Cav3 (UniProt O43497)
UniProt O43497, sequence (O43497 whole entry): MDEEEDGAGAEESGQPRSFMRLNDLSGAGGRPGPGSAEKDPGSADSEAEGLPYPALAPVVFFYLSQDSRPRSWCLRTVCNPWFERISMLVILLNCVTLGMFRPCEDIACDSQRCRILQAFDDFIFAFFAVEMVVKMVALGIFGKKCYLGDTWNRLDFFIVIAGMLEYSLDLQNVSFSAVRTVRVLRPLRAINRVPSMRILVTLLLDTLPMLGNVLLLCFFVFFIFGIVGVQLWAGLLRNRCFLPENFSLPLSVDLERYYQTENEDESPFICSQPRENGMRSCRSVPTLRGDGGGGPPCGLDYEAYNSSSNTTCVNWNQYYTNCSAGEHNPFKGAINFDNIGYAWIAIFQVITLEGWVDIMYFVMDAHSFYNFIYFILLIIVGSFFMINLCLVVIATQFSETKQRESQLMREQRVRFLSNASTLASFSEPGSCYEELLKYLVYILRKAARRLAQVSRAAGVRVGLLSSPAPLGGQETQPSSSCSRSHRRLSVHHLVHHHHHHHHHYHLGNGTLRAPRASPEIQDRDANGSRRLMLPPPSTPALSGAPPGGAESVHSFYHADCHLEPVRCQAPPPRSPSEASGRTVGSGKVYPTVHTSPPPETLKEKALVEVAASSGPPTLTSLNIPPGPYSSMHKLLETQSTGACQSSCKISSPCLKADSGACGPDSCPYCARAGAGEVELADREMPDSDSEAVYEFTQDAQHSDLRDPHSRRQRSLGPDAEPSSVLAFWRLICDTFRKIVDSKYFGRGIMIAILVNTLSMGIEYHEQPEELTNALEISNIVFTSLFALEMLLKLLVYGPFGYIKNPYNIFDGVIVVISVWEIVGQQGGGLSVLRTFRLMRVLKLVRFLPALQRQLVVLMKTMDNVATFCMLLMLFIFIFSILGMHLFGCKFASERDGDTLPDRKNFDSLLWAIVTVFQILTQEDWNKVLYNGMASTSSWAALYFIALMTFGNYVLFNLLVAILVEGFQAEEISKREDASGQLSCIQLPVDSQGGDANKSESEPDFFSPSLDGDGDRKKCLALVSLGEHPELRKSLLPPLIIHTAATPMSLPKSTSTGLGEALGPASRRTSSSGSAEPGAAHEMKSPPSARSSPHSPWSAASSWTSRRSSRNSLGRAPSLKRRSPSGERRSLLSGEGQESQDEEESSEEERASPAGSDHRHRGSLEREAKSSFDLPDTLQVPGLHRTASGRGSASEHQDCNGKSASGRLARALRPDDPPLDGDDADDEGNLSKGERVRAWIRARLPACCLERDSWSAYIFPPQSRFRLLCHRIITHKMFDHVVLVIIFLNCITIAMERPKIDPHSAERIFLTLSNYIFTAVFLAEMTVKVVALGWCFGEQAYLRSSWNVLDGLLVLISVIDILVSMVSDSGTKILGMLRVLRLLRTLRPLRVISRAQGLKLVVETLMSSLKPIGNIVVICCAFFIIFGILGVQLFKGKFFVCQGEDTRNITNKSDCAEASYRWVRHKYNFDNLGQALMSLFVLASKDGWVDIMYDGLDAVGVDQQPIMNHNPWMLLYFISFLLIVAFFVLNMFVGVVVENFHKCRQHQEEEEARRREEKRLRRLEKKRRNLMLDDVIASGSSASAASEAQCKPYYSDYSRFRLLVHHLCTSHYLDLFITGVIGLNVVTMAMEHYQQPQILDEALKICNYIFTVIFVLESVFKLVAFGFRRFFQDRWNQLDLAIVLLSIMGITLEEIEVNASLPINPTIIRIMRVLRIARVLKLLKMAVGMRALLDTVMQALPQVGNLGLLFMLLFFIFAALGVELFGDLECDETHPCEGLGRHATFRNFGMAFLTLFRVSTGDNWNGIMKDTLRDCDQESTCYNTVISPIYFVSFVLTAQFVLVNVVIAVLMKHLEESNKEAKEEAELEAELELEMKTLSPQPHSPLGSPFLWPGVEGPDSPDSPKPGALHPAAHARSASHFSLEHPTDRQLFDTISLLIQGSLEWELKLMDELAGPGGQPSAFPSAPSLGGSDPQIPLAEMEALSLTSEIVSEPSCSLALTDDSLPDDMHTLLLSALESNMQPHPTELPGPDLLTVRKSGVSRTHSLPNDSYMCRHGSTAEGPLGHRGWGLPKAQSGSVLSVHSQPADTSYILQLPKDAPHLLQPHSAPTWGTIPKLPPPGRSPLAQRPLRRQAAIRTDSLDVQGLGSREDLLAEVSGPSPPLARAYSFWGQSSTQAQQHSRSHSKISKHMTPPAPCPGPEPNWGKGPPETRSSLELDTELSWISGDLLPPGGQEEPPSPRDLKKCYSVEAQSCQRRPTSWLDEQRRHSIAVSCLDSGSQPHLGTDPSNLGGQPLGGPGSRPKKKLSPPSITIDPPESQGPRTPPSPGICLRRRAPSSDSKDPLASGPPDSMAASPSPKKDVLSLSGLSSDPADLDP

UniProt E2JF22, sequence (E2JF22 whole entry): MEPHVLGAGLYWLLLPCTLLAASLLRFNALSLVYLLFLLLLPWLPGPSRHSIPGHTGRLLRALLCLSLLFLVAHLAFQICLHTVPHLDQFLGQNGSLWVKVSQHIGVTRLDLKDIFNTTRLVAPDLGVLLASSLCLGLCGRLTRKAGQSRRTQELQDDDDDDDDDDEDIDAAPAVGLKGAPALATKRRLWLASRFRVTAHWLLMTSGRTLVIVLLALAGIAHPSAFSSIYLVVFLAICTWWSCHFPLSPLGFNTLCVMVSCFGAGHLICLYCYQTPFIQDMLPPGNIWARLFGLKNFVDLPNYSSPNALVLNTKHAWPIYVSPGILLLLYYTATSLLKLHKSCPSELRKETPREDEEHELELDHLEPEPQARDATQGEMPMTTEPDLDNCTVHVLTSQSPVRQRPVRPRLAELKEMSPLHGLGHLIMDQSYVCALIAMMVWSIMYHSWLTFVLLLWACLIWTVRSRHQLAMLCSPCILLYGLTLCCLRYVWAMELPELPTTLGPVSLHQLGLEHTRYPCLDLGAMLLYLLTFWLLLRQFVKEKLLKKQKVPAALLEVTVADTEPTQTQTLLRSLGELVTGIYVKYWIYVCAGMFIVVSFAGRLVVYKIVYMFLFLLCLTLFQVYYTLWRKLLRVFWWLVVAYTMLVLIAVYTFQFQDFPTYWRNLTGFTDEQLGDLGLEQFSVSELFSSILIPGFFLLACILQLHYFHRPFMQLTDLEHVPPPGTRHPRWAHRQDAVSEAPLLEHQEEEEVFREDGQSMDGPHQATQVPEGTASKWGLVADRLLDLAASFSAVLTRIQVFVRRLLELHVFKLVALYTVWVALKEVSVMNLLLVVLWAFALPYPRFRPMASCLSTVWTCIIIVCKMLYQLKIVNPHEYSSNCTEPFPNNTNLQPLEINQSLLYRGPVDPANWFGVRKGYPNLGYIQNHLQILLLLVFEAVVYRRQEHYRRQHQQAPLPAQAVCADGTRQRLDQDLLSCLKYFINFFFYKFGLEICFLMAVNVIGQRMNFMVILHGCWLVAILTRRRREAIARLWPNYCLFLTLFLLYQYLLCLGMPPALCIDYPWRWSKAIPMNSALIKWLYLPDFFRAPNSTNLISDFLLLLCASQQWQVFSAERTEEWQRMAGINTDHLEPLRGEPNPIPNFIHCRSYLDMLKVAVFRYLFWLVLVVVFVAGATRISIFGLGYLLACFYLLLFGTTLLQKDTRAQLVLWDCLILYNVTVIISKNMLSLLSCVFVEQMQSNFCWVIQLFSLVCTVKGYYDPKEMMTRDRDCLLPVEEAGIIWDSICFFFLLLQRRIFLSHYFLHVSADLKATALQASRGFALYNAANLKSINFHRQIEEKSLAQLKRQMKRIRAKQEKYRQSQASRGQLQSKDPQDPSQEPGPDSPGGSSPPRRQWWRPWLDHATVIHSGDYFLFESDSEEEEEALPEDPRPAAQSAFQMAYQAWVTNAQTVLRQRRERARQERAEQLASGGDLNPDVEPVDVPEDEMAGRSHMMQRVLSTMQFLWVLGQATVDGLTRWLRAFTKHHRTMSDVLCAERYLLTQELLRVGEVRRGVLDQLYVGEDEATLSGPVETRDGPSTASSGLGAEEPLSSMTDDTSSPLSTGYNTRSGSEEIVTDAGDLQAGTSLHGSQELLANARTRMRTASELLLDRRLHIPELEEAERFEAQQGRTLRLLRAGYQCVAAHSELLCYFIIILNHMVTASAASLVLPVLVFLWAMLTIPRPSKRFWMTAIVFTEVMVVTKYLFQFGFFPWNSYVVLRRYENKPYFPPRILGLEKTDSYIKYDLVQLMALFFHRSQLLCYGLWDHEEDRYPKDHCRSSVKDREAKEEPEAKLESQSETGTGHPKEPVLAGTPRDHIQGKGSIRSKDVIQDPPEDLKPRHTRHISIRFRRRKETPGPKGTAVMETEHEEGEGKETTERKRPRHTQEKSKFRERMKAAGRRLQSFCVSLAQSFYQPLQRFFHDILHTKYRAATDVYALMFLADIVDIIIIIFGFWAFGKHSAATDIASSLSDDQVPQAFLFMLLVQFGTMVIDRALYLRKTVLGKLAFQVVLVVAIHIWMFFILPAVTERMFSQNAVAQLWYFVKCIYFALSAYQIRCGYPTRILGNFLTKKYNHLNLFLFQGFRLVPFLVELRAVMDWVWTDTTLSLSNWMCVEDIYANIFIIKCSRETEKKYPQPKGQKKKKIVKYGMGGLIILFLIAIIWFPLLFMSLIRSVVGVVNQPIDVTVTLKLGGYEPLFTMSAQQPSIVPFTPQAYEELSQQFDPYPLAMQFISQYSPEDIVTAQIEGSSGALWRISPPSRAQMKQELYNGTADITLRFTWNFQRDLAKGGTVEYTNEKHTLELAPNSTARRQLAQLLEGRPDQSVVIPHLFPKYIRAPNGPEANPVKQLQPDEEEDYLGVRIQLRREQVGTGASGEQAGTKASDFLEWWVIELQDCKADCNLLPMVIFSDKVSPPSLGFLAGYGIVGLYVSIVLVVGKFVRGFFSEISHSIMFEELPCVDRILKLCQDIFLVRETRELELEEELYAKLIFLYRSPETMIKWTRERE

| Substance | Kd (Piezo1) [nM] | Kd (Cav3) [nM] |
| --- | --- | --- |
| GsMTx4 (from UniProt Q7YT39) | 155 |  |
| Kurtoxin (from UniProt P58910) |  | 15 |
